Measured values reported in IntAct's records for PubMed 29892012.

B1: Multifunctional procollagen lysine hydroxylase and glycosyltransferase LH3 (Homo sapiens), O60568 (parent)
chain: MTSSGPGPRFLLLLPLLLPPAASASDRPRGRDPVNPEKLLVITVATAETEGYLRFLRSAEFFNYTVRTLGLGEEWRGGDVARTVGGGQKVRWLKKEMEKYADREDMIIMFVDSYDVILAGSPTELLKKFVQSGSRLLFSAESFCWPEWGLAEQYPEVGTGKRFLNSGGFIGFATTIHQIVRQWKYKDDDDDQLFYTRLYLDPGLREKLSLNLDHKSRIFQNLNGALDEVVLKFDRNRVRIRNVAYDTLPIVVHGNGPTKLQLNYLGNYVPNGWTPEGGCGFCNQDRRTLPGGQPPPRVFLAVFVEQPTPFLPRFLQRLLLLDYPPDRVTLFLHNNEVFHEPHIADSWPQLQDHFSAVKLVGPEEALSPGEARDMAMDLCRQDPECEFYFSLDADAVLTNLQTLRILIEENRKVIAPMLSRHGKLWSNFWGALSPDEYYARSEDYVELVQRKRVGVWNVPYISQAYVIRGDTLRMELPQRDVFSGSDTDPDMAFCKSFRDKGIFLHLSNQHEFGRLLATSRYDTEHLHPDLWQIFDNPVDWKEQYIHENYSRALEGEGIVEQPCPDVYWFPLLSEQMCDELVAEMEHYGQWSGGRHEDSRLAGGYENVPTVDIHMKQVGYEDQWLQLLRTYVGPMTESLFPGYHTKARAVMNFVVRYRPDEQPSLRPHHDSSTFTLNVALNHKGLDYEGGGCRFLRYDCVISSPRKGWALLHPGRLTHYHEGLPTTWGTRYIMVSFVDP
partner: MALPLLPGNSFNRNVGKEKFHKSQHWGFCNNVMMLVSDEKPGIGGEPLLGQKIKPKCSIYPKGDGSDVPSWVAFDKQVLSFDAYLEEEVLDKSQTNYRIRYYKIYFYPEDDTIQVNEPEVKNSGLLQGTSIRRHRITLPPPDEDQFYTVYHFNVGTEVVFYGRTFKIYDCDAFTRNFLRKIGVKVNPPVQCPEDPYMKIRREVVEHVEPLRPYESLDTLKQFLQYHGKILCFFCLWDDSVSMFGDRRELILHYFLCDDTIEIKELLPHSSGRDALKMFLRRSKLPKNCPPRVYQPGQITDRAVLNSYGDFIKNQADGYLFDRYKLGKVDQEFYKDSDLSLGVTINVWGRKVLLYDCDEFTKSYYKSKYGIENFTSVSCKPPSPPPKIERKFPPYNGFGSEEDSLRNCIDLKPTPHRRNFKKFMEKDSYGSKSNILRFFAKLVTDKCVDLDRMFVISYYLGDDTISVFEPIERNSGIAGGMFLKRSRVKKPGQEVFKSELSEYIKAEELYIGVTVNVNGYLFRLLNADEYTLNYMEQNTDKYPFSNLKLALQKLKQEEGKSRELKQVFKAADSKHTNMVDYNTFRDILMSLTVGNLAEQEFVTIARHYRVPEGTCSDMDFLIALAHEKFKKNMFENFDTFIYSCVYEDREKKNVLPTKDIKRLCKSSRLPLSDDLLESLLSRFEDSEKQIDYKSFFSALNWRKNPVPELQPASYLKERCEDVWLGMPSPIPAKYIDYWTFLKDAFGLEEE
B2: Coiled-coil alpha-helical rod protein 1 (Homo sapiens), Q8TD31 (parent)
chain: MFPPSGSTGLIPPSHFQARPLSTLPRMAPTWLSDIPLVQPPGHQDVSERRLDTQRPQVTMWERDVSSDRQEPGRRGRSWGLEGSQALSQQAEVIVRQLQELRRLEEEVRLLRETSLQQKMRLEAQAMELEALARAEKAGRAEAEGLRAALAGAEVVRKNLEEGSQRELEEVQRLHQEQLSSLTQAHEEALSSLTSKAEGLEKSLSSLETRRAGEAKELAEAQREAELLRKQLSKTQEDLEAQVTLVENLRKYVGEQVPSEVHSQTWELERQKLLETMQHLQEDRDSLHATAELLQVRVQSLTHILALQEEELTRKVQPSDSLEPEFTRKCQSLLNRWREKVFALMVQLKAQELEHSDSVKQLKGQVASLQEKVTSQSQEQAILQRSLQDKAAEVEVERMGAKGLQLELSRAQEARRRWQQQTASAEEQLRLVVNAVSSSQIWLETTMAKVEGAAAQLPSLNNRLSYAVRKVHTIRGLIARKLALAQLRQESCPLPPPVTDVSLELQQLREERNRLDAELQLSARLIQQEVGRAREQGEAERQQLSKVAQQLEQELQQTQESLASLGLQLEVARQGQQESTEEAASLRQELTQQQELYGQALQEKVAEVETRLREQLSDTERRLNEARREHAKAVVSLRQIQRRAAQEKERSQELRRLQEEARKEEGQRLARRLQELERDKNLMLATLQQEGLLSRYKQQRLLTVLPSLLDKKKSVVSSPRPPECSASAPVAAAVPTRESIKGSLSVLLDDLQDLSEAISKEEAVCQGDNLDRCSSSNPQMSS
partner: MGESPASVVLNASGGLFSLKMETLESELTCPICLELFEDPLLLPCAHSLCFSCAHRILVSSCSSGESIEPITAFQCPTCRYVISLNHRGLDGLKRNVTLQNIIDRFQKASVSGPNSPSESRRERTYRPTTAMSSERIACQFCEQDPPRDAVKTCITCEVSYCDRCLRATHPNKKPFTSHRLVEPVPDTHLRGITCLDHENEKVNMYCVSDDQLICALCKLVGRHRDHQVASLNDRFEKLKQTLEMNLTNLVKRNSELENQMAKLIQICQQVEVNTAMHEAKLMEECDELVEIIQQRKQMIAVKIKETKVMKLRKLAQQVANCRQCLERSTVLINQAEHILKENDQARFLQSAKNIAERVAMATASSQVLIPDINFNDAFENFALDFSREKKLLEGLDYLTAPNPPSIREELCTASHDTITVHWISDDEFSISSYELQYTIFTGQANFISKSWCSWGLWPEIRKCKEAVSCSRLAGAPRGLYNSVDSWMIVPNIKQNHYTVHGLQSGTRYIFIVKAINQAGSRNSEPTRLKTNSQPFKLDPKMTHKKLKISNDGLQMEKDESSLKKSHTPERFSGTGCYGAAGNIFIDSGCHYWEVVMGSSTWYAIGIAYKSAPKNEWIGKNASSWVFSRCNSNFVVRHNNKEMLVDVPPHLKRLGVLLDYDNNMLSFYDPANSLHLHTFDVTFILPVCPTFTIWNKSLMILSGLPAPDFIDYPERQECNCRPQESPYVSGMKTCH
B3: E3 ubiquitin-protein ligase LNX (Homo sapiens), Q8TBB1 (parent)
chain: MNQPESANDPEPLCAVCGQAHSLEENHFYSYPEEVDDDLICHICLQALLDPLDTPCGHTYCTLCLTNFLVEKDFCPMDRKPLVLQHCKKSSILVNKLLNKLLVTCPFREHCTQVLQRCDLEHHFQTSCKGASHYGLTKDRKRRSQDGCPDGCASLTATAPSPEVSAAATISLMTDEPGLDNPAYVSSAEDGQPAISPVDSGRSNRTRARPFERSTIRSRSFKKINRALSVLRRTKSGSAVANHADQGRENSENTTAPEVFPRLYHLIPDGEITSIKINRVDPSESLSIRLVGGSETPLVHIIIQHIYRDGVIARDGRLLPGDIILKVNGMDISNVPHNYAVRLLRQPCQVLWLTVMREQKFRSRNNGQAPDAYRPRDDSFHVILNKSSPEEQLGIKLVRKVDEPGVFIFNVLDGGVAYRHGQLEENDRVLAINGHDLRYGSPESAAHLIQASERRVHLVVSRQVRQRSPDIFQEAGWNSNGSWSPGPGERSNTPKPLHPTITCHEKVVNIQKDPGESLGMTVAGGASHREWDLPIYVISVEPGGVISRDGRIKTGDILLNVDGVELTEVSRSEAVALLKRTSSSIVLKALEVKEYEPQEDCSSPAALDSNHNMAPPSDWSPSWVMWLELPRCLYNCKDIVLRRNTAGSLGFCIVGGYEEYNGNKPFFIKSIVEGTPAYNDGRIRCGDILLAVNGRSTSGMIHACLARLLKELKGRITLTIVSWPGTFL
partner: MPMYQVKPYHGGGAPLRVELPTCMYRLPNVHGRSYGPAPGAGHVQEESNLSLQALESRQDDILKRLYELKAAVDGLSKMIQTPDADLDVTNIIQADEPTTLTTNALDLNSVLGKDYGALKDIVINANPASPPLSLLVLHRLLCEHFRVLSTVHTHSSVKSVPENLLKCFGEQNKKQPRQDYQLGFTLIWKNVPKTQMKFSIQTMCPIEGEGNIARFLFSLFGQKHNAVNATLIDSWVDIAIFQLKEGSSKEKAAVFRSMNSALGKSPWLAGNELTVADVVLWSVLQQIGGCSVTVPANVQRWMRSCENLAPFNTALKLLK
B4: Coiled-coil alpha-helical rod protein 1 (Homo sapiens), Q8TD31 (parent)
chain: B2 chain
partner: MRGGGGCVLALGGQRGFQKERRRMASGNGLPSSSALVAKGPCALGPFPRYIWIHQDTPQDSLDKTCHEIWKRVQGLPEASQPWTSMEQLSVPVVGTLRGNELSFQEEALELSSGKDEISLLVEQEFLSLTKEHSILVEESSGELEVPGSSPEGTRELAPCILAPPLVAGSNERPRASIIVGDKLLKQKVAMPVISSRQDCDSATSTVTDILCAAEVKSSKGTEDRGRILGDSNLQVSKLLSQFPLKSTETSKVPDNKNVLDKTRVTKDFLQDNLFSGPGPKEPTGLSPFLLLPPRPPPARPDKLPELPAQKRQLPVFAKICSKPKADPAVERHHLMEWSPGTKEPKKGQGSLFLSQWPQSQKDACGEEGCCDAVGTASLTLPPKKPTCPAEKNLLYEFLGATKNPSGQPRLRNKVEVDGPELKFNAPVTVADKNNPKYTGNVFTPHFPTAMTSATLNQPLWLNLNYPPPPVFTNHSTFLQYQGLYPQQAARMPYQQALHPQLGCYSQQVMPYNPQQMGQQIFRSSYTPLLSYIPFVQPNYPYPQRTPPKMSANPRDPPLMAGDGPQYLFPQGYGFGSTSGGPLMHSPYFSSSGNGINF

Variants of: B1
Settings: with efhc2_human EFHC2, Q5JST6

Row | Variant | effect of a mutation on the interaction
1 | R235Q | with no effect

Variants of: B2
Settings: with trim1_human MID2, Q9UJV3

Row | Variant | effect of a mutation on the interaction
2 | W337R | disrupting interaction strength

Variants of: B3
Settings: with aimp2_human AIMP2, Q13155

Row | Variant | effect of a mutation on the interaction
3 | E295K | disrupting interaction strength

Variants of: B4
Settings: with ca094_human C1orf94, Q6P1W5

Row | Variant | effect of a mutation on the interaction
4 | W337R | disrupting interaction strength
